Data taken from US20240207432A1 (BIOSION, published 2024).
Read-outs that look alike come from different tables or passages of the source.

Key:
[1] = target: T1, cynomolgus TROP2-his protein (cynomolgus monkey, UniProt P09758 27-272 (human entry), limits assumed); assay: indirect ELISA, cynomolgus TROP2-his coated at 2 ug/mL, OD(450-630)
T1 construct: no cleavage site is stated; also called Cynomolgus monkey TROP2-his protein; monkey TROP2
T1 chain: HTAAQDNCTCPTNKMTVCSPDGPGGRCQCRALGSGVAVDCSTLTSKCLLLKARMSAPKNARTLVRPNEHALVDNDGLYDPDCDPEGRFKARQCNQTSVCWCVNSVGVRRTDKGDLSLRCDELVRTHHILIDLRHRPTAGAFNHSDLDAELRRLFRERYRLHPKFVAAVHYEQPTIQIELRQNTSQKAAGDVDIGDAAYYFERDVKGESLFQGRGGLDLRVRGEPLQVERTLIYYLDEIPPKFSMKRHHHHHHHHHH
Procedure: (§1) The anti-TROP2 antibodies of the disclosure were tested for their cross-reaction with cynomolgus TROP2 proteins. Briefly, 96-well micro plates were coated with 100 μl 2 μg/ml cynomolgus TROP2-his proteins (prepared in-house with SEQ ID NO: 70) in carbonate/bicarbonate buffer (pH 9.6) overnight at 4° C. ELISA plates were washed once with wash buffer (PBS+0.05% v/v Tween-20, PBST) and then blocked with 200 μl/well blocking buffer (5% w/v non-fatty milk in PBST) for 2 hours at 37° C. […] After a final wash, plates were incubated with 100 μl/well TMB (Innoreagents) at room temperature. The reaction was stopped 3-10 minutes later at room temperature with 50 μl/well 1M H₂SO₄, and the absorbance of each well was read on a microplate reader using dual wavelength mode with 450 nm for TMB and 630 nm as the reference wavelength. The OD (450-630) values were plotted against antibody concentration. Data was analyzed using Graphpad Prism software and EC₅₀ values were reported.

human TROP2-his protein [2] = target: T2, human TROP2-his protein (human, UniProt P09758 27-274); assay: SPR Biacore T200, mAb captured on anti-mouse IgG CM5 chip, TROP2-his analyte
T2 construct: Biotin-labelled in the ELISAs, unlabelled analyte in Biacore; also called biotin-labeled human TROP2-his protein; biotin human Trop2-his
T2 sequence: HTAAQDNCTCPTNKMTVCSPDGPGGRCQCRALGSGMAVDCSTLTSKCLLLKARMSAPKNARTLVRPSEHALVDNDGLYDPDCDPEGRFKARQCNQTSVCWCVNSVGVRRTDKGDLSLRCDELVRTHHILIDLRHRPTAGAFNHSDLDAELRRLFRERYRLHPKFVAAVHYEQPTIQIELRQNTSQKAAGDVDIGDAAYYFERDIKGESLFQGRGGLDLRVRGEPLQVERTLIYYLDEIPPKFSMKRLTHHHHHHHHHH
Procedure: (§2) Un-reacted moieties on the chip (biosensor) surface were blocked with ethanolamine. […] The antigen-antibody association kinetics was followed for 2 minutes and the dissociation kinetics was followed for 10 minutes. The association and dissociation curves were fit to a 1:1 Langmuir binding model using BIAcore evaluation software.

[3] = target: T1, cynomolgus TROP2-his protein; assay: as above
Procedure: as §2

human TROP2-his protein [4] = target: T2, human TROP2-his protein; assay: capture ELISA, antibody captured on anti-mouse IgG Fc coat, biotin human TROP2-his in solution, OD(450-630)
Procedure: Plates were washed once with wash buffer (PBS+0.05% v/v Tween-20, PBST) and then blocked with 200 μl/well blocking buffer (5% w/v non-fatty milk in PBST) for 2 hours at 37° C. […] Plates containing captured anti-TROP2 antibodies were incubated with biotin-labeled human TROP2-his protein (prepared in house, SEQ ID NO: 67, 56.7 ng/mL in 2.5% w/v non-fatty milk in PBST, 100 μl/well) for 40 minutes at 37° C., washed 4 times, and incubated with streptavidin conjugated HRP (1:10000 dilution in PBST, Jackson Immuno Research, Cat #016-030-084, 100 μl/well) for 40 minutes at 37° C. After a final wash, plates were incubated with 100 μl/well ELISA substrate TMB (Innoreagents, Cat #TMB-S-002) at room temperature. The reaction was stopped in 3-10 minutes at room temperature with 50 μl/well 1M H₂SO₄, and the absorbance of each well was read on a microplate reader using dual wavelength mode with 450 nm for TMB and 630 nm as the reference wavelength. The OD (450-630) values were plotted against antibody concentration. Data was analyzed using Graphpad Prism software and EC₅₀ values were reported.

human TROP2-his protein [5] = target: T2, human TROP2-his protein; assay: competitive ELISA: BM1 coated at 1 ug/mL, antibody premixed with biotin human TROP2-his; blocked: binding of TROP2-his to coated BM1
Procedure: The mouse anti-TROP2 antibodies were tested for epitope binding in a competitive ELISA assay. […] ELISA plates were washed once with wash buffer (PBS+0.05% v/v Tween-20, PBST) and then blocked with 200 μl blocking buffer (5% w/v non-fatty milk in PBST) for 2 hours at 37° C. While blocking, the anti-TROP2 antibodies or controls were diluted with biotin labeled human TROP2-his protein (SEQ ID NO: 67, 34 ng/mL in 2.5% wA non-fatty milk in PBST), starting at 80 nM with a 5-fold serial dilution, and incubated at room temperature for 40 minutes. After plate washing for 4 times, the antibody/TROP2-his protein mixtures were added to the antibody coated plates, 100 μl per well. After incubation at 37° C. for 40 minutes, plates were washed 4 times again using wash buffer. Then the plates were added and incubated with 100 μl Peroxidase Streptavidin (1:10000 dilution in PBST buffer. Jackson Immunoresearch, Cat #016-030-084) for 40 minutes at 37° C. Plates were washed again using wash buffer. Finally, TMB was added and the reaction was stopped using 1M H₂SO₄. The absorbance of each well was read on a microplate reader using dual wavelength mode with 450 nm for TMB and 630 nm as the reference wavelength, and the OD (450-630) values were plotted against antibody concentration. Data was analyzed using Graphpad Prism software and IC₅₀ values were reported.

human TROP2-his protein [6] = target: T2, human TROP2-his protein; assay: SPR Biacore, human TROP2-his analyte
[7] = target: T3, full length human TROP2 on 293F-TROP2 cells (human, UniProt P09758 27-323); assay: FACS on 293F-TROP2 cells, MFI
T3 construct: also called 293F-TROP2 cells (clone ID #3A8); cell surface TROP2
T3 sequence: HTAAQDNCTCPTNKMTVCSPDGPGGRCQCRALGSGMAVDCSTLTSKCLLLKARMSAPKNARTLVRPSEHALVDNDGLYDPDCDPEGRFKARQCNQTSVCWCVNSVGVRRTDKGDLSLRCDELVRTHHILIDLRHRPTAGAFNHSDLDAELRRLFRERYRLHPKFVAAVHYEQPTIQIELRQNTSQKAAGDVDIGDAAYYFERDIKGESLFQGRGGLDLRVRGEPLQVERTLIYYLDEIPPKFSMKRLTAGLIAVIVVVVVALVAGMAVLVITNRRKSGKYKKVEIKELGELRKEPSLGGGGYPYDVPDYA

human TROP2-his protein [8] = target: T2, human TROP2-his protein; assay: epitope grouping ELISA, 15 ug/ml antibody premixed with biotin human TROP2-his; competitor: coated BM1
Procedure: (§3) Firstly, capture ELISA was performed to determine the concentration of biotin-labeled human Trop2 proteins appropriate for the epitope binning test. […] The plates were washed for 4 times, added with 100 μl/well of serially diluted biotin human Trop2-his proteins (SEQ ID NO: 67) in PBST with 2.5% non-fatty milk (starting from 1.3 μg/ml with a 5-fold serial dilution), and incubated for 40 min at 37° C. Then the plates were washed for 4 times and added with 100 μl/vell of HRP-streptavidin (Jackson Immuno Research, Cat #016-030-084). The plates were incubated for another 40 min at 37° C. Then the plates were washed again, and 100 μl/well TMB was added for color development at RT for 15 min followed by quenching with 50 μl 1M H₂SO₄. The OD values at 450 nm were read.
(§4) With the appropriate concentration determined above, epitope grouping ELISA was performed. […] ELISA plates were washed once with wash buffer (PBS+0.05% v/v Tween-20, PBST) and then blocked with 200 μl blocking buffer (5% w/w non-fatty milk in PBST) for 2 hours at 37° C. […] The mixtures were incubated at room temperature for 40 minutes. After plate washing for 4 times, the antibody/biotin-TROP2-his protein mixtures were added to the antibody coated plates, 100 μl per well, and incubated for another 40 min at 37° C. Then 100 μl/well of HRP-streptavidin was added and incubated for 40 min. Then OD₄₅₀ values were determined and the cross-competition capability was calculated (cross-competition capability of antibody X (%)=(OD₄₅₀ of Antibody X-[…] of Blank)/(OD₄₅₀ of no mAb-OD₄₃₀ of Blank)*100%).

human TROP2-his protein [9] = target: T2, human TROP2-his protein; assay: epitope grouping ELISA, 15 ug/ml antibody premixed with biotin human TROP2-his; competitor: coated BM2
Procedure: as §3, §4

human TROP2-his protein [10] = target: T2, human TROP2-his protein; assay: epitope grouping ELISA, 15 ug/ml antibody premixed with biotin human TROP2-his; competitor: coated huA1E4F7D4-V16
Procedure: as §3, §4

[11] = target: T3, full length human TROP2 on 293F-TROP2 …; assay: FACS on 293F-TROP2 cells, MFI; remark: listed apart in the source
Procedure: The binding activity of the mouse anti-TROP2 antibodies to cell surface TROP2 proteins was tested by flow cytometry (FACS), using Biosion in-house prepared 293F-TROP2 cells (clone ID #3A8) stably expressing full length human TROP2s (uniprot #P09758, SEQ ID NO.: 71) on cell membrane. The 293F-TROP2 cells were prepared by transfecting 293F cells (Thermofisher Inc., Cat #11625019) with a pCMV-T-P plasmid inserted with human TROP2 coding sequence between EcoRI and XbaI sites, following the instruction of lipofectamine 3000 transfection reagent (Thermo Fisher).
The 293F-TROP2 cells were harvested from cell culture flasks, washed twice and re-suspended in phosphate buffered saline (PBS) containing 2% v/v Fetal Bovine Serum (FACS buffer). […] Following an incubation of 40 minutes at 4° C. in dark, cells were washed twice and re-suspended in FACS buffer. Fluorescence was measured using a Becton Dickinson FACS Canto II-HTS equipment, and the MFI (mean fluorescence intensity) was plotted against antibody concentration. Data was analyzed using Graphpad Prism software and EC₅₀ values were reported.

[12] = target: T1, cynomolgus TROP2-his protein; assay: indirect ELISA, cynomolgus TROP2-his coated at 2 ug/mL, OD(450-630)
Procedure: as §1

B1: mouse antibody B1G1F5A3 (antibody, V domains shown)
VH: EVQLQQSGPELVKPGTSVKMSCKASGYSFADYSMNWVRQSHGNSLEWIGYIYPNNGASGFNQKFKGKATLTVDKSSSTAYMELHSLTSEDSAVYYCAREQDNSGYCFDYWGQGTSLTVSS
VL: DVVMTQTPLSLAVRLGDQASISCRSSLNLVHSNGNTFLHWYLQRPGQSPKLLIYKVSNRFSGVSDRFSGSGSGTDFTLKISRVEAEDLGVYFCSQTTHVPTFGGGTKLEIK
notes: Mouse monoclonal IgG purified from hybridoma supernatant
EC50 [1]: 0.863 nM
Kd (human TROP2-his protein [2]): 0.416 nM
koff (human TROP2-his protein [2]): 5.58e-05 s⁻¹
kon (human TROP2-his protein [2]): 134000 M⁻¹ s⁻¹
Kd [3]: 0.568 nM
koff [3]: 8.86e-05 s⁻¹
kon [3]: 156000 M⁻¹ s⁻¹
EC50 (human TROP2-his protein [4]): 0.335 nM
IC50 (human TROP2-his protein [5]): 0.516 nM

B2: BM2 (in house made analog of Datopotamab) (antibody, human IgG1, kappa, V domains shown)
VH: QVQLVQSGAEVKKPGASVKVSCKASGYTFTTAGMQWVRQAPGQGLEWMGWINTHSGVPKYAEDFKGRVTISADTSTSTAYLQLSSLKSEDTAVYYCARSGFGSSYWYFDVWGQGTLVTVSS
VL: DIQMTQSPSSLSASVGDRVTITCKASQDVSTAVAWYQQKPGKAPKLLIYSASYRYTGVPSRFSGSGSGTDFTLTISSLQPEDFAVYYCQQHYITPLTFGQGTKLEIKR
Kd (human TROP2-his protein [6]): 28.7 nM
koff (human TROP2-his protein [6]): 0.00364 s⁻¹
kon (human TROP2-his protein [6]): 127000 M⁻¹ s⁻¹
EC50 [7]: 0.908 nM
OD450 (human TROP2-his protein [8]): 0.519 OD450
OD450 (human TROP2-his protein [9]): 0.354 OD450
OD450 (human TROP2-his protein [10]): 1.63 OD450

B3: mouse antibody A1B12D2B4E7B3 (antibody, V domains shown)
VH: EVQLQQSGPELVKPGASVKMSCKASGFTFTDYYMNWVKQSHGKSLEWIGYIYPNHGGTGYNQKFKDKATLTVDKSSSTAYMELRSLTSDDSAVYYCARENYGYAMDYWGQGTSVTVSS
VL: DVVMTQTPLSLPVSLGDQASISCRSSQSLVHGDGNTYLHWFLQKPGQSPKLLIYTVSNRFSGVPDRFSGSGSGTDFTLKINRVEAEDLGIYFCSQTTHVPTFGGGTKLEIK
notes: as for B1
EC50 [11]: 0.896 nM
EC50 [12]: 0.578 nM
Kd (human TROP2-his protein [2]): 1.06 nM
koff (human TROP2-his protein [2]): 8.92e-05 s⁻¹
kon (human TROP2-his protein [2]): 84000 M⁻¹ s⁻¹
Kd [3]: 1.12 nM
koff [3]: 0.000124 s⁻¹
kon [3]: 111000 M⁻¹ s⁻¹
EC50 (human TROP2-his protein [4]): 0.248 nM
IC50 (human TROP2-his protein [5]): 1.55 nM
